In patent publication US10907134B2, “Mutated genes for the catalytic protein of oplophorus luciferase and use thereof” (JNC CORPORATION, priority 2013, dated 2021):
Positions count from the first letter of the chain named. Numbers in names are those of the source.

B1: KAZ-V44I-A54I: KAZ mutant with two amino acid substitutions V44I and A54I, SEQ ID NO: 10 (protein)
chain: FTLADFVGDWQQTAGYNQDQVLEQGGLSSLFQALGVSVTPIQKIVLSGENGLKIDIHVIIPYEGLSGFQMGLIEMIFKVVYPVDDHHFKIILHYGTLVIDGVTPNMIDYFGRPYPGIAVFDGKQITVTGTLWNGNKIYDERLINPDGSLLFRVTINGVTGWRLCENILA
B2: KAZ: wild 19 kDa catalytic protein of Oplophorus luciferase (19kOLase), amino acid sequence SEQ ID NO: 2 (protein, listed as Oplophorus gracilirostris)
chain: B1 chain with I44V, I54A
B3: KAZ-V44I-A54I-Y138I: KAZ mutant with three amino acid substitutions V44I, A54I and Y138I, SEQ ID NO: 16 (protein)
chain: B1 chain with Y138I
B4: KAZ-A54I-Y138I: KAZ mutant with two amino acid substitutions A54I and Y138I, SEQ ID NO: 14 (protein)
chain: B1 chain with I44V, Y138I
B5: KAZ-V44I-Y138I: KAZ mutant with two amino acid substitutions V44I and Y138I, SEQ ID NO: 12 (protein)
chain: B1 chain with I54A, Y138I

Test system: not listed separately
Assay: Substrate specificities of KAZ mutants (ZZ-fused, crude enzyme), h-CTZ
Assay type: biochemical
Settings: 1 μg substrate, integrated for 60 seconds
Procedure: (§1) The coelenterazine analogues used for substrate specificity studies were synthesized by the methods described in publications. Specifically, bis-coelenterazine was synthesized by the method described in Nakamura et al. (1997) Tetrahedron Lett. 38: 6405-6406; furimazine by the method described in Hall et al. (2012) ACS Chem. Biol. […]; and, 6h-coelenterazine, f-coelenterazine and 6h-f-coelenterazine by the methods described in Inouye et al (2013) Biochem. Biophys. Res. Commun. 437: 23-28.
(§2) DTT was added to the crude enzyme solutions obtained in EXAMPLE 17 at a final concentration of 1 mM and the mixtures were allowed to stand in an ice water for more than 5 hours in the same manner as Example 8. A luminescence reaction was started by the addition of 1 μL each of the crude enzyme solutions to 100 μL of TE containing 1 μg of coelenterazine (manufactured by JNC Corp.) or its analogues. The luminescence activities were determined using a luminometer (manufactured by Atto Inc.: AB2200) for 60 seconds, and the maximum intensity of luminescence (Imax) was shown as relative luminescence activity.

Relative Luminescence Activity h-CTZ Int.	Molecule
8.7	B1
0.7	B2
33.2	B3
12.9	B4
9.7	B5

Same assay, conditions: 1 μg substrate, maximum intensity of luminescence

Relative Luminescence Activity h-CTZ Imax	Molecule
17.9	B1
1.1	B2
83.1	B3
24.2	B4
19.1	B5

Test system: not listed separately
Assay: Luminescence activity of ZZ-fused KAZ mutants in crude enzyme solutions
Assay type: biochemical
Settings: Table 4; ZZ-fused (pCold-ZZ-P-); 1 μL crude enzyme solution, 1 mM DTT; 1 μg coelenterazine
In short: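 E. coli BL21 crude extracts held with 1 mM DTT (final) on ice over 5 hours. Reaction started with 1 μL extract in 100 μL TE containing 1 μg coelenterazine; luminescence read for 60 seconds, maximum intensity (Imax) reported as relative activity.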

Relative Luminescence Activity (Imax)	Molecule
1.0	B2

Same assay, conditions: Table 9; ZZ-fused (pCold-ZZ-P-); crude enzyme solution, 1 mM DTT; coelenterazine

Relative Luminescence Activity (Imax)	Molecule
15.3	B1
1.0	B2
66.7	B3
23.1	B4
17.1	B5

Same assay, conditions: ZZ-fused, crude enzyme solution; coelenterazine (Table 9)

Luminescence activity, fold higher than dnKAZ [fold]	Luminescence activity, fold higher than wild KAZ [fold]	Molecule
1.6	15	B1
7.1	67	B3
2.5	23	B4
1.8	17	B5

Test system: not listed separately
Assay: Substrate specificities of KAZ mutants (ZZ-fused, crude enzyme), f-CTZ
Assay type: biochemical
Settings: 1 μg substrate, integrated for 60 seconds
Procedure: as §1, §2

Relative Luminescence Activity f-CTZ Int.	Molecule
5.2	B1
0.8	B2
9.5	B3
9.2	B4
7.4	B5

Same assay, conditions: 1 μg substrate, maximum intensity of luminescence

Relative Luminescence Activity f-CTZ Imax	Molecule
11.3	B1
0.9	B2
43.8	B3
19.7	B4
13.3	B5

Test system: not listed separately
Assay: Substrate specificities of KAZ mutants (ZZ-fused, crude enzyme), bis-CTZ
Assay type: biochemical
Settings: 1 μg substrate, integrated for 60 seconds
Procedure: as §1, §2

Relative Luminescence Activity bis-CTZ Int.	Molecule
5.9	B1
0.9	B2
11.9	B3
9.2	B4
8.3	B5

Same assay, conditions: 1 μg substrate, maximum intensity of luminescence

Relative Luminescence Activity bis-CTZ Imax	Molecule
5.7	B1
0.6	B2
13.3	B3
9.5	B4
7.9	B5

Test system: CHO-K1 cells
Assay: Luminescence activity of KAZ mutants expressed in animal culture cells without secretional signal peptide sequence
Assay type: cell-based, Chinese hamster
Settings: Table 12; pcDNA3- vectors without secretion signal; CHO-K1; cell extracts; coelenterazine
Procedure: Chinese hamster ovary cell line CHO-K1 was cultured in Ham's F-12 medium (manufactured by Wako Pure Chemical Industries, Ltd.) supplemented with 10% (v/v) fetal bovine serum (manufactured by Biowest Inc.). The CHO-K1 cells were plated in a 6-well plate in 1×10^5 cells/well/2 mL medium (n=2) and cultured in an incubator at 37° C. in 5% (v/v) CO2. After 24 hours, the purified recombinant plasmid was transfected to CHO-K1 cells using a FuGene HD transfection kit (manufactured by Promega Corp.), which was provided for subsequent experiment. Specifically, 1 μg of the recombinant plasmid pGL4.13 [Luc2/sv40], 0.1 μg of the internal standard vector and 3 μL of FuGene HD were added to 100 μL of the medium, which was allowed to stand at room temperature for 15 minutes. Subsequently, 100 μL of the DNA-FuGene complex was added to the cells in the 6 wells. After incubation for 48 hours, the culture medium was collected. On the other hand, the KAZ mutants expressed in the cells were washed 3 times with 3 mL of 1×PBS, then suspended in 1 mL of 1×PBS and disrupted on ice by ultrasonication, which was used as enzyme solutions of the cell-extracts of KAZ mutants.
A luminescence reaction was started by adding 5 μL of the culture media and cell extracts obtained in EXAMPLE 10 to 100 μL of 30 mM Tris-HCl (pH 7.6)-10 mM EDTA (manufactured by Wako Pure Chemical Industries, Ltd.) containing 0.5 μg of coelenterazine (manufactured by INC Corp.). The luminescence activity was determined using a luminometer (manufactured by Atto Inc.: AB2200) for 60 seconds, and the maximum intensity of luminescence (Imax) was defined as a percentage.
The gene fragments of the KAZ mutants with two amino acid substitutions and three amino acid substitutions and nanoKAZ containing the Kozak sequence were digested with restriction enzymes Asp718 and XbaI, and inserted into the Asp718-XbaI site of pcDNA3 vector (manufactured by Invitrogen Inc.) to construct the vectors of pcDNA3-KAZ-V44I, pcDNA3-KAZ-A54I, pcDNA3-KAZ-Y138I, pcDNA3-KAZ-V44I-A54I, pcDNA3-KAZ-V44I-Y138I, pcDNA3-KAZ-A54I-Y138I and pcDNA3-KAZ-V44I-A54I-Y138I.
The culture media of the KAZ mutants with two amino acid substitutions and KAZ mutants with three amino acid substitutions and the enzyme solutions of cell-extracts of KAZ mutants were obtained in the same manner as EXAMPLE 10.
Luminescence activities of the resulting enzyme solutions and enzyme solutions of the cell-extracts of KAZ mutants were determined in the same manner as EXAMPLE 11.

Molecule	Relative Luminescence Activity (Imax) Cell Extracts
B1	22.5
B2	1.0
B3	56.0
B4	21.5
B5	14.7

Same assay, conditions: Table 12; pcDNA3- vectors without secretion signal; CHO-K1; culture medium; coelenterazine

Molecule	Relative Luminescence Activity (Imax) Culture Medium
B1	0.05
B2	0.03
B3	0.08
B4	0.05
B5	0.04

Same assay, conditions: summary of results

Molecule	Luminescence activity compared with wild KAZ when coelenterazine was used as a substrate
B1	markedly higher luminescence activities than wild KAZ
B3	markedly higher luminescence activities than wild KAZ
B4	markedly higher luminescence activities than wild KAZ
B5	markedly higher luminescence activities than wild KAZ

Same assay, conditions: vectors without a secretion signal; CHO-K1; coelenterazine

Molecule	Luminescence activity in the cell extracts, fold higher than wild KAZ [fold]
B1	23
B3	56
B4	22
B5	15

Test system: not listed separately
Assay: Substrate specificities of KAZ mutants (ZZ-fused, crude enzyme), furimazine
Assay type: biochemical
Settings: 1 μg substrate, integrated for 60 seconds
Procedure: as §1, §2

Relative Luminescence Activity Furimazine Int.	Molecule
4.3	B1
0.5	B2
9.2	B3
5.8	B4
5.4	B5

Same assay, conditions: 1 μg substrate, maximum intensity of luminescence

Relative Luminescence Activity Furimazine Imax	Molecule
3.4	B1
0.4	B2
10.6	B3
5.9	B4
5.1	B5
